In the DeepSol protein solubility set:

Assay: soluble on expression in E. coli; label from the status in PepcDB or PDB records
For “MAHHHHHHMSVPEWARSEHSIEEAKEYLRTGNSVDFFELVSSHILREHPLDVAAFALDLVERISKLGNTLSARDYHPKRVEDNKYLQEKNVCEFLNEWILALLKERPDTDEARMSFHKRYLKSLVDGGGCSQCTSVN”, the “soluble on expression in E. coli” value was “not soluble”.
With “MGSDKIHHHHHHAADHVKGDGKLTSKKISVADYNEIKVDGVIDFNYEQSDDPSTVEVTVDQNLHPYVNIEVKDRVLTIAFKGAKVDHFTKFIVKTNSKWLAAAKVSGNANFMVNSPLTGDETVIKANANSLVQLKETVTVGKLDLNVSGSANMVVNHLEADKIECDIDGSGSITIKKGNAKEGDYSIVSSGDIHAFGLAVPQLSCKVTGNGLAEVHATDNLKANVVGKGNIRYKGPTAVQQRIIGKGTVEEVKE” the “soluble on expression in E. coli” value was “not soluble”.
With “MTAPHDVPDLTGSGEYLVPDVLQPGLTLVLVGTAPSGISARARAYYANPENKFWRTLHAVGLTPRQLVPQEYATLPQYGLGLTDVAKRHSGVDAALPGEAWRPDELRRKVEHYRPRIVAFTSKRGASETLGVPTGKLPYGPQPQPLDWPAETELWVLPSTSPLGHNHFRLEPWQALGDRVRELRGAAEAGNPSPETPVL” the “soluble on expression in E. coli” value was “soluble”.
In the case of “MERLKIQVLVDNNTYIDRYFVGEPAVSYYIEIDGNRILFDSGYSDVFISNAEKLNIDLGNLTHVVFSHGHNDHTRGIQFLENRYDLSTVELVSHPNCFIPRKHGEKSIGAPFSAEEIKNIFMYNPKDKPFNLSKNCVFLGEIPSINDFEKRAKIGKCKIGDLWEDDYVLDDSAIVCKTDKGIFIVTGCSHSGICNIVEYAKKVCGDDRVIGILGGFHLFELNNRLDSTIQYLDKEEIRMLYPCHCVSFKVKAKMNEILNINEVGVGLTISILEHHHHHH”, the “soluble on expression in E. coli” value is reported as “soluble”.
In the case of “MSKKIKVGIVGATGYTGVELLRLLAAHPDVEVAAVTSRSEAGTAVADYFPSLRGVYGLAFQTPDEAGLEQCDIVFFATPNGIAMKDAPRLIEQGVRVIDLSADFRIRDIPTWEHWYGMTHAAPDLVSQAVYGLSELNREAVAQARLVANPGCYPTCVSLPLVPLLRQCRLKPGMPLIADCKSGVSGAGRKGNVGSLLCEAGDNFKAYGIAGHRHLPEIRQTIAGLQDGIAEGFVFTPHLAPMIRGMHATVYLHLSDGSDPETVLRDYYRDSPFVDILPTGSAPETRSVRGANLCRISIQQAAQSDVWVVLSVIDNLVKGAAGQAVQNMNIMFGLEETHGLDAIPLLP”, the “soluble on expression in E. coli” value is reported as “not soluble”.
For “MTLTEQPQRIAILHSLYLEYFLALGTPPIASAGASTGDAMKALGEWETLKPYAGTAKIIDLGSARDLNLEAILGANPDVIVTFKGQGNLDKIYEQLEQIAPVILVDFSAPWQEQILACAEIVNKEADAQKLIKEIEDSVQSAKEKLSRLEHHHHHH”, the “soluble on expression in E. coli” value was “not soluble”.
For “MSLVIVAIGCTFAAIPAYRIFCEQTSFGGLTQVAKDFDKIANMKKCEDRLIRVQFNSDVPSSMRWEFKPQQHEIYVHPGETALAFYTARNPTDKPIIGISSYNLTPFQAAYYFNKIQCFCFEEQILNPGEQVDLPVFFYIDPDYVNDPALEYLDSILLSYTFFEAKSGLKLPDPFDPKNRPSIAPSPDKVPEATK”, the “soluble on expression in E. coli” value was “not soluble”.
For “MRILGLDLGTKTLGVALSDEMGWTAQGIETIKINEAEGDYGLSRLSELIKDYTIDKIVLGFPKNMNGTVGPRGEASQTFAKVLETTYNVPVVLWDERLTTMAAEKMLIAADVSRQKRKKVIDKMAAVMILQGYLDSLNLEHHHHHH”, the “soluble on expression in E. coli” value was “not soluble”.
In the case of “MSICTRKFINKLGFPNFGGESVQIAISGGKGWNWKIYSRHKSCSKMGVKRTLADLDVEAPNDHLLLGVSLANEEPVYQFMPHFDYLKCIKRRKCAKVCEEHAIVTLKDGTPFLMPTLCSGCRACEIVCPVPGAIREMAGDPLEHHHHHH”, the “soluble on expression in E. coli” value is reported as “not soluble”.
In the case of “MSLLRAIIVDNEEPATQILQMLLEKTGQIRVVGTFLRAADALSSLRLTKPDVAFLDIEIPDTSGLELANHILAMDSDVEIIFVTAYDHYALHAFRVNALDYLLKPLLPEDVERAVRRLIKRKGLAKDSAPESPLGANIHYFGKFSVYGPASKKPVKWRTSKAEELFAYLVQNLEKEVPKWRICEALWPEYHSEKVDIQLHTTVYKLKKVLTAANIPFDLSFSNGCYWLSLPQAAIDKVEFDAHIASSVPVNQSTIARCEHALSLYTGDYLEENGYLWSLALKAEYGQKFYKLASSVVNFYMTQGDWVRAEKILRSILERCPLDETVHEMLLTCYFTQKDRTAFITHYHTVRKLFQAELGLEPGKSIQTLYHSLLKRMDEGHHHHHH”, the “soluble on expression in E. coli” value is reported as “soluble”.
For “MLRFDHLVHAVHGTPEEAAKQMQELGFHTVLGGEHTNWGTWNSLSYFDLSYIEFLAVQYEEKAKEAENPLVQETVVKLQNGEGMLQIAIRTDAIEELAVNFNKYGLHTIGPFEGKRMRKDGRLLEWKMLFVKQEENGPKLPFFIQWNETDEERRNDLRNSGTITEHKNKVQQIETIHYAVKNVRETVRKWKEVMELSTSSVVKIEKWNAECQSVVFGDIHVQFCEPIGEGLVLEHLNKNGENPFAVEFKGGNKREHEVLGSLYIY”, the “soluble on expression in E. coli” value was “not soluble”.
In the case of “MGSDKIHHHHHHMEHAQMSEKTTNELEKLREHIDSVDQQLLHLLRKRLDLVAQVGGVKHAAGVPIYAPQREASMLAKRREEAAKMNVSPQLIEDILRRLMRESYLNEKDVGFKQVKTDLGHVVIVGGQGKLGGLFAQMLSLSGYQVKSLDKDDWQQADAIFDGAGMVIVTVPISITCELIRDKLTSLPSSCILADLTSIKEKPLEAMLASHQGPVVGLHPMFGPDVGSLAKQVVVVCHGRGREQYEWLLEQIGIWGARLVEADAQQHDKAMQLVQAMRHFSSFVYGLNLYREAADIDNLLQFSSPIYRLELAMVGRLFAQSPELYADIIFAQQESLTAIGDYLDNYAQALELLKRGDRQGFIREFEEVAAWFGDFAPQFQRESRAMLQSVNDMKTG”, the “soluble on expression in E. coli” value is reported as “not soluble”.
With “MGSDKIHHHHHHMKVTFLGHAVVLIEGKKNIIIDPFISGNPVCPVKLEGLPKIDYILVTHGHGDHLGDAVEIAKKNDATVISNYEICHYLGKKGVKTHAMHIGGSYLFDFGRVKMTPAVHGSGILDGDSMIYGGNPSGFLITIEGKKIYHAGDTGLTREMELLAEENVDVAFLPIGGNFVMDVEDAVRAAVMIKPKKVVPMHYGTWELIFADVELFKKKVEEKGVECVILEPGESLEL” the “soluble on expression in E. coli” value was “not soluble”.
In the case of “QSTSNKTLDTLIVTGTRISDRTAAESSSPIDIISQESLEATGTTELATALSRMVPSLNFPRPAVSDGNDAVRPAQLRGLSPDQVLVLVNGKRYHTTALVNLNEIQGRGSAPADLNTIPIAAIERIEVLRDGASAQYGSDAIAGVINIVLKGAGKGGSITGHYGEYKVKDGKQYELSGDTGLSFAGTGKVHFAAQGGHEDQTNRAVPYNDGIIRQRYGDPKINQGAFSYNGSYSPTEGVTFYSFGMVSRRKVLSNGFYRWADDARNRPEIYPEGFLPQIYNVANDTSWVSGMKASTAWGLNIDLSYNYGNNQLTFDVRNSLNNSLGLSSPTAFYAGGLEITQHVLNADFNKSVDWGHLAYPLNLAFGVEWRGEIFNEYQGEEASYINGGVRSSAGTLLPGAQVFSGFKPSDSGGFDRNSHSMYIDLEGNLTEKFSAGVAGRYEHYSDFSNTR”, the “soluble on expression in E. coli” value is reported as “not soluble”.
In the case of “GAMAPERPLVGVNGLDVTSLRPFDLVIPFTIKKGEITGEVRMPSGKVAQPTITDNKDGTVTVRYAPSEAGLHEMDIRYDNMHIPGSPLQFYVDYVNCGHVTAYGPGLTHGVVNKPATFTVNTKDAGEGGLSLAIEGPSKAEISCTDNQDGTCSVSYLPVLPGDYSILVKYNEQHVPGSPFTARVTGDD”, the “soluble on expression in E. coli” value is reported as “soluble”.
In the case of “MVLLSFDIEEFDVPLEQGYKDFPSEEQLRISRQGTEAILHILRKKGVRSTFFSTVTFWESLPEDLRKGIYTDGHELASHGVFHSSFSKEHLAESRQKLASLWDGTDVCGFRMPRMMPVGDAEIAEAGYLYNSSLNPTCIPGRYNHLSAPRLPYFDKYGVLQMPSSVTPLLRFPLFWLSLHHLPLRLYIRMIRHTVRRDNYLNLYFHPWEFAEISCLPDCKLSYTVTHNSGEKMCRRLEAVIDTLLADGCSFGTFSDYYRFQKQG”, the “soluble on expression in E. coli” value is reported as “not soluble”.
With “MGHHHHHHSHMKQKLLVTLLGLSALGASPVFAANTNVDLAEDAYIYGYSIDEAYKFFYHTAVENNYPLNRFQNIRALADDSYTAHPTINNDTLHLMGWLDVAAEPVIVSVPDMDEGRYWILHTMDMGHYTNAAFSSRTRGTKGGQFMFAAQDWQGEVPASVDEVVRVDSNLVKLMGRIMAVNDEDAKVALNYMDQWNIRTLSEYLGKNGPKPVQRTYPDPKKSTWLERVNFVLCDGSMGNADKQWLDKYQSIGVEPCKTDFTPEQLKLAKVGEKKGMEHLVELAPKMTDARTLLGTRDTLGDAPRDIFAEGTYLGQWGLPPIEASYRKSDFDSIGQKLDGSKHDYVMRFKAPNVSEFWSVTIYGNDNRLMAKNDLNRHSRGDRTMKADKDGYYTIYMSANEKGRADDPNFLPVPEKPFYAIMRFYGADDAIQSGEYQMPEIKVVK” the “soluble on expression in E. coli” value was “soluble”.
With “MRGNLKLFELKSGRGEKLMKNILIISSSPRKKGNSQILCEQFKKGAEAKGHQVKIVRIMEQNIGFCRACDGCMRNGGTCVLKDDMAEILKMFQKADVLVLATPVYFYGISAQMKTFIDRTYPIWQHLGKKEVYYIISAGLGEDIIERSLGDLNGFVEHLEEYKISGKIYAANVMDAGLVKNQSVFQKAYDMGYAI” the “soluble on expression in E. coli” value was “not soluble”.
In the case of “MKLDKYTVGKRYGKALFELAVEKNQAEAIYQELLTLREVYHQVPGIGDILSDDRLEPYEKDSIMEKLVTGFSEMMQNFLRVVYEYRRMYDLLLMIDEYERRYDEHQGLILGSVTTAIPLSKEQHQAMEEKAAQLLGYEQAHLVNLIDPSIVGGVVIEANHQVIDGSIRKQLEHMQQKLLK”, the “soluble on expression in E. coli” value is reported as “not soluble”.
In the case of “GSSGSSGDKKAYFYHSSFQILNVEYTEALNSPATHEYRTLSERIEAMITDEFRGSSLKSEFIRTHVVKLRKEGTGVVADVVMKFRSSKRNNRKVMKTRIQSVLRRLSSSGNLEIAPSNEITSLTDQDT”, the “soluble on expression in E. coli” value is reported as “soluble”.
In the case of “MAHHHHHHMSWRTRVVRCPLQEPHNPFDMGRVMQRFWSPFCKGVKGPDLHTYGFGETFSGMRTHDSDFTCQVNGQVGGAKLVEDFFITLLCGFDFEHVKVERHLTTSGAADPCQFQGTIVLAHTRPFLGWCPQPVTHSLEKCPSPSECDATKVSTNNINELGNTTATASRCLVQTGGNTEAPVPSLILNVPFTARLEGNVGRISHMILRSPAIGVIAAHQCCPAEVGSCLQNPEALQALVTLRRANVRPEMITDRTLVGITAKKAAWCSALGIL”, the “soluble on expression in E. coli” value is reported as “not soluble”.
For “MGSDKIHHHHHHMIGEKIISFESIDSTNRFLKENYRFYPDGTVVVALEQTSGYGRSGRHWHSPKGGLWFSVLFKPRKPLELSFYTRVFSVAVVKTLENMKIHANIKWPNDVYINGRKLAGVLSEGIFEGAKPLAVVVGVGMNVNNEIPAELKTRAISLKEIMGKEISIVKLMESMLKNARVIFRKYSRKKEALTRIWKRYLLQKEGDLISLEGKKGKIVKINPDSLLIDFDGEIKKVYSLSPH”, the “soluble on expression in E. coli” value was “not soluble”.
